This note sets out measurements from patent publication US6969517 (dated 2005).

Test [1] concerns the target T1, EpCAM (KSA) (human, UniProt P16422).
T1 chain: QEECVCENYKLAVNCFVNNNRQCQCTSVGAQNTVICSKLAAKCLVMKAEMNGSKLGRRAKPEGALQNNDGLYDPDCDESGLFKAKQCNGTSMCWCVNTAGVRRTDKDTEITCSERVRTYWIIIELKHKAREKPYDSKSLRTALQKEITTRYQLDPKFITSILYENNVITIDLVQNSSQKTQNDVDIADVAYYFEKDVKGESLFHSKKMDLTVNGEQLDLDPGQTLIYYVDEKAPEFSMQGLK
Nature of the test: SPR. For orientation: Surface plasmon resonance follows binding to a sensor surface in real time, without labels.

The target in test [2] is T1, EpCAM (KSA). The test can be described thus: SPR.
For test [3], the target named is T1, EpCAM (KSA). Nature of the test: ELISA. A general note: ELISA stands for enzyme-linked immunosorbent assay.
Test [4] concerns the target T1, EpCAM (KSA). The test can be described thus: ELISA.

Where two headings read alike, the source gives them in different places.

B1: VK8/VH7-IL2 (antibody, V domains shown)
VH: QIQLVQSGAEVKKPGETVKISCKASGYTFTNYGMNWVKQTPGKGLKWMGWINTYTGEPTYADDFKGRFAFSLETSTSTAFLQINNLRSEDTATYFCVRFISKGDYWGQGTSVTVSS
VL: EIVLTQSPATLSLSPGERVTLTCSASSSVSYMLWYQQKPGSSPKPWIFDTSNLASGFPARFSGSGSGTSYSLIISSMEAEDAATYYCHQRSGYPYTFGGGTKLEIK
Consider B1, for which the dissociation constant (Kd) with EpCAM (KSA) [1] came out at 1 nM.

B2: VK8/VH7 (Construct 3) (antibody, V domains shown)
VH: QIQLVQSGAEVKKPGETVKISCKASGYTFTNYGMNWVKQTPGKGLKWMGWINTYTGEPTYADDFKGRFAFSLETSTSTAFLQINNLRSEDTATYFCVRFISKGDYWGQGTSVTVSS
VL: EIVLTQSPATLSLSPGERVTLTCSASSSVSYMLWYQQKPGSSPKPWIFDTSNLASGFPARFSGSGSGTSYSLIISSMEAEDAATYYCHQRSGYPYTFGGGTKLEIK
In the case of B2, the affinity with EpCAM (KSA) [2], expressed as Kd, was 1 nM.

B3: '369 chKS-1/4 (VK0/VH'369) (antibody, V domains shown)
VH: QIQLVQSGPELKKPGETVKISCKASGYTFTNYGMNWVKQTPGKGLKWMGWINTYTGEPTYADDFKGRFAFSLETSASTAFLQIQQPQNMRTMATYFCVRFISKGDYWGQGTSVTVSS
VL: QILLTQSPAIMSASPGEKVTMTCSASSSVSYMLWYQQKPGSSPKPWIFDTSNLASGFPARFSGSGSGTSYSLIISSMEAEDAATYYCHQRSGYPYTFGGGTKLEIK
B3: the binding result with EpCAM (KSA) [3] was “no binding”.

B4: VK0/VH0 (hybridoma chKS-1/4) (antibody, V domains shown)
VH: QIQLVQSGPELKKPGETVKISCKASGYTFTNYGMNWVRQAPGKGLKWMGWINTYTGEPTYADDFKGRFVFSLETSASTAFLQLNNLRSEDTATYFCVRFISKGDYWGQGTSVTVSS
VL: QILLTQSPAIMSASPGEKVTMTCSASSSVSYMLWYQQKPGSSPKPWIFDTSNLASGFPARFSGSGSGTSYSLIISSMEAEDAATYYCHQRSGYPYTFGGGTKLEIK
As for B4, the Kd with EpCAM (KSA) [2] was 1 nM.

B5: VK6/VH6 (Construct 1) (antibody, V domains shown)
VH: QVQLVQSGAEVKKPGESVKISCKASGYTFTNYGMNWVRQAPGKGLEWMGWINTYTGEPTYAQKFQGRVTISLDTSTSTAYLQLSSLRAEDTAVYFCVRFISKGDYWGQGTSVTVSS
VL: EIVLTQSPATLSLSPGERVTLTCSASSSVSYMLWYQQKPGQAPKLLIFDTSNLASGIPARFSGSGSGTDYTLTISSLEPEDFAVYYCHQRSGYPYTFGGGTKLEIK
For B5, in the test with EpCAM (KSA) [4], the binding result is reported as “no binding”.

B6: VK1/VH1-IL2 (antibody, V domains shown)
VH: QIQLVQSGPELKKPGSSVKISCKASGYTFTNYGMNWVRQAPGKGLKWMGWINTYTGEPTYADDFKGRFTITAETSTSTLYLQLNNLRSEDTATYFCVRFMSKGDYWGQGTTVTVSS
VL: QIVLTQSPASLAVSPGQRATITCSASSSVSYILWYQQKPGQPPKPWIFDTSNLASGFPSRFSGSGSGTSYTLTINSLEAEDAATYYCHQRSGYPYTFGGGTKVEIK
As to B6, binding with EpCAM (KSA) [1] was put at a Kd of 7.9 nM.

B7: VK1/VH2-IL2 (antibody, V domains shown)
VH: QIQLVQSGPELKKPGSSVKISCKASGYTFTNYGMNWVRQAPGKGLKWMGWINTYTGEPTYADDFKGRFTITAETSTSTLYLQLNNLRSEDTATYFCVRFISKGDYWGQGTTVTVSS
VL: QIVLTQSPASLAVSPGQRATITCSASSSVSYILWYQQKPGQPPKPWIFDTSNLASGFPSRFSGSGSGTSYTLTINSLEAEDAATYYCHQRSGYPYTFGGGTKVEIK
Consider B7, for which the dissociation constant (Kd) with EpCAM (KSA) [1] turned out to be 3.1 nM.

By Kd is commonly meant the free concentration of one partner at which half of the binding sites on the other are occupied at equilibrium, for simple one-to-one binding.
